# T1: MBP-Mzfp1 MADF1-MADF2 (Drosophila melanogaster, UniProt Q1LZ24 100-434)
# T1 sequence: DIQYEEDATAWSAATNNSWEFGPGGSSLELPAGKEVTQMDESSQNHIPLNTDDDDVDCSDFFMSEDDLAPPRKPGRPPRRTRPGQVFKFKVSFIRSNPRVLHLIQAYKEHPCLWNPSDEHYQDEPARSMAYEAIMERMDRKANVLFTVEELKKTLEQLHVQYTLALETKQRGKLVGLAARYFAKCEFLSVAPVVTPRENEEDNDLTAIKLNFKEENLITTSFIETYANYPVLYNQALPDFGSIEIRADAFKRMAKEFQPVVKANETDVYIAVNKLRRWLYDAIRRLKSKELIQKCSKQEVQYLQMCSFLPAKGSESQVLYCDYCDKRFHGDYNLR
# T2: MBP-Mzfp1 full-length (Drosophila melanogaster, UniProt Q1LZ24 1-586)
# T2 sequence: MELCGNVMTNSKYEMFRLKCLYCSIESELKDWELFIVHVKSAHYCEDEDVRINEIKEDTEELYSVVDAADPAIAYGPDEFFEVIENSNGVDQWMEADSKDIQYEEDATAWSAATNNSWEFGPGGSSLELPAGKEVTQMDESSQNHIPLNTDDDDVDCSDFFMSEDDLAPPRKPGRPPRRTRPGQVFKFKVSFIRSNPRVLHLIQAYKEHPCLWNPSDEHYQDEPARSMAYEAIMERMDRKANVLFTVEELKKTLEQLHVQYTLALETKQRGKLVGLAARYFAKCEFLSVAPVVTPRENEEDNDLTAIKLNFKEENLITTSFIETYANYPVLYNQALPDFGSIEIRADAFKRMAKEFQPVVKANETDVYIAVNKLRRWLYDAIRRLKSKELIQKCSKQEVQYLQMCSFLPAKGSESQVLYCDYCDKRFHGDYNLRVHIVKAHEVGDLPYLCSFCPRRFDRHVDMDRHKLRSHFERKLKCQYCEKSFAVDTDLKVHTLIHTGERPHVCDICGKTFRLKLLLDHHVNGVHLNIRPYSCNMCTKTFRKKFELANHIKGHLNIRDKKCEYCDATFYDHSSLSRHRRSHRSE
# B1: Mzfp1x4 (dsDNA)
# DNA 1: GAATTCTAAGCTCTTTGTCGATATCTTGACACACCTATATGATTACTAAGCTCTTTGTCGATATCTTGACACACCTATATGAATTCTAAGCTCTTTGTCGATATCTTGACACACCTATATGATTACTAAGCTCTTTGTCGATATCTTGACACACCTATATGAATTCCTGCAG
# DNA 2: CTGCAGGAATTCATATAGGTGTGTCAAGATATCGACAAAGAGCTTAGTAATCATATAGGTGTGTCAAGATATCGACAAAGAGCTTAGAATTCATATAGGTGTGTCAAGATATCGACAAAGAGCTTAGTAATCATATAGGTGTGTCAAGATATCGACAAAGAGCTTAGAATTC
# Legend:
# MBP-Mzfp1 MADF1-MADF2 = molecular target: T1, MBP-Mzfp1 MADF1-MADF2; test: EMSA; no specific binding; 0.1 mM ZnSO4, poly(dI-dC); PBS pH 8.0, 5 mM MgCl2, 0.1 mM ZnSO4, 1 mM DTT, 0.1% NP-40, 10% glycerol, poly(dI-dC), room temperature, 30 min; 5% native PAGE in 0.5x TBE; settings: protein: recombinant; tags: MBP; label: Cy5; blunt
# MBP-Mzfp1 full-length = molecular target: T2, MBP-Mzfp1 full-length; test: EMSA; 0.1 mM ZnSO4, 5 mM MgCl2, poly(dI-dC); PBS pH 8.0, 5 mM MgCl2, 0.1 mM ZnSO4, 1 mM DTT, 0.1% NP-40, 10% glycerol, poly(dI-dC), room temperature, 30 min; 5% native PAGE in 0.5x TBE; settings: protein: recombinant; tags: N-terminal MBP; label: Cy5; blunt
binder,measurement,setting,value
B1,binding result,MBP-Mzfp1 MADF1-MADF2,no binding
same,binding result,MBP-Mzfp1 full-length,binds

# Source: article PMC11229372, “New Drosophila promoter-associated architectural protein Mzfp1 interacts with CP190 and is required for housekeeping gene expression and insulator activity”
